Experimental findings from patent US6613506B1, “Compositions and methods for inhibiting human immunodeficiency virus infection by down-regulating human cellular genes” (Subsidiary No. 3, Inc., priority 2000, dated 2003) are described below.

First the molecules themselves.
B1: CF-673: GSE, SEQ ID NO:73, antisense; BBC-1 gene (nucleic acid, listed as Homo sapiens)
antisense: TCATCACTGAGGAAGAGAAGAATTTCAAAGCCTTCGCTAGTCTCCGTATGGCCCGTGCCAACGCCCGGCTCTTCGGCACACGGGCAAAA
B2: CF-685: GSE, SEQ ID NO:93, antisense; cell surface heparin binding protein gene (nucleic acid, listed as Homo sapiens)
antisense: TCGGGAGCCGCGGCTTATGGTGCAGACATGGCCAAGTCCAAGAACCACACCACACACAACCAGTCCCGAAAATGGCACAGAAATGGTATCAAGAAACCCCGAT
B3: CF-660: GSE, SEQ ID NO:79, antisense; human hsp90 chaperone protein gene (nucleic acid, listed as Homo sapiens)
antisense: GAGAGGGGGGATCTCATCAGGAACTGCAGCATTGGGTTCCTCTGCTGCCACTTCATCTTCATCAAT
B4: CF-653: GSE, SEQ ID NO:67, antisense; MIP-1 alpha gene (nucleic acid, listed as Homo sapiens)
antisense: CCCACATTCCGTCACCTGCTCAGAATCATGCAGGTCTCCACTGCTGCCCTTGCTGTCCTCCTCTGCACCATGGCTCTCTGCAACCAGTTCTCTGCATCACTTGCTGCTGACACG
B5: CF-676: GSE, SEQ ID NO:63, antisense; alpha enolase gene (nucleic acid, listed as Homo sapiens)
antisense: GTACAACCAGCTCCTCAGAATTGAAGAGGAGCTGGGCAGCAAGGCTAAGTTTGCCGGCAGGAACTTCAGAAACCCCTTGGCCAAGTAAGCTGTGGGCAGGCAAGCCCTTCGGTCACCTGTTGGCT
B6: CF-674: GSE, SEQ ID NO:69, sense; human translationally controlled tumor protein 1 gene (nucleic acid, listed as Homo sapiens)
sense: CTCTGTTCTTCAAGTTTCCCTTTGATTGATTTCATGTAATCTTTGATGTACTTCTTGTAGGCTTCTTTTGTGAAACTTGTTT
B7: CF-684: GSE, SEQ ID NO:91, sense; human tumorous imaginal disc protein gene (nucleic acid, listed as Homo sapiens)
sense: AATCATTGTTTTTTCCTTTGTAAATGTTGATTCAGAAAAGGAAAGCACAGGCTAAGCAGTTGAAGGTTCCCCACCATTCAGTGAGAGCAG
B8: CF-50: GSE, SEQ ID NO:39, sense; squalene synthetase gene (nucleic acid, listed as Homo sapiens)
sense: AAGTGAAATGCAGGTGAGAAGAACCTAAACATGAAAGGAAAGGGTGCCTCATCCCAGCAACCTGTCCTTGTGGGTGATGATCACTGTGCTGCTTGTGGCTCATGGCAGAGCATTCAGTGCCAA
modifications: chemistry not fully specified
notes: squalene synthetase gene
B9: CF-527: GSE, SEQ ID NO:41; eukaryotic release factor 1 gene; acts through a peptide (nucleic acid, listed as Homo sapiens)
DNA: CGTTTAAGAATGGAAAAGCGACATAACTATGTTCGGAAAGTAGCAGAGACTGCTGTGCAGCTGTTTATTTCTGGGGACAAAGTGAATGTGGCTGGTCTAGTTTTAGCTGGATCCGCTC
modifications: chemistry not fully specified
notes: eukaryotic release factor 1 gene; acts through a peptide

One data set relates to HIV. Nature of the data set: Selection of GSEs from PBMC library using CEM-ss cells. It counts as cell-based. As for the experimental part:
A cell-derived random fragment library (RFL) was constructed using cDNA from peripheral blood mononuclear cells (PBMC). Four buffy coats were obtained from four healthy blood donors and PBMCs were purified by Ficoll gradient centrifugation followed by stimulation with PHA (1 μg/mL). Cells were removed at 5, 10, and 24 hours after the addition of PHA and total RNA was isolated by Trizol extraction. All time points from all donors were then pooled. Polyadenylated mRNA was purified from the total RNA by passages through an oligo-dT column. cDNA was synthesized from the polyadenylated RNA with random primers using the Gibco Superscript Choice system for cDNA Synthesis (Gibco BRL, Rockville, Md.). The cDNA was normalized using the PCR-Select cDNA Subtraction kit (Clontech, Palo Alto, Calif.) based on the suppression subtractive hybridization methods of Diatchenko et al. (1996, Proc. Natl. Acad. Sci. USA 93, 6025-6030, 1996). The primers used for the normalization were: […]
The normalized random fragments were digested with XhoI and Sse83871, purified on quick spin columns (available from Qiagen, Valencia, Calif.) and ligated into the SseI/XhoI site of a bicistronic retroviral vector, EMCVNgfrMPBIN. This vector was based on LXSNgfr as described in Dunn el al. (1999, Gene Therapy 6:130-137). Modifications included substitution of the Moloney murine leukemia virus LTR with the hybrid LTR described by Baum et al., 1995, (J. Virol. 69:7541-7547) and replacement of the SV40 promoter with encephalomyocarditis virus (EMCV) internal ribosomal entry site isolated from the plasmid, pCITE (available from Amersham, Arlington Heights, Ill.). The ligation mix was then transformed into competent cells. The total plasmid was purified from approximately 50 million clones.
The PBMC library was screened using the methods described above in Section 1F. A total of 14 GSEs were isolated using CEM-ss cells. […] The complement of SEQ ID NO:69 is represented by SEQ ID NO:70. CF-675 (SEQ ID NO:71) is another GSE that has substantial sequence identity with a gene encoding human translationally controlled tumor protein 1 (GenBank Accession No. HUMCH13C4A). The complement of SEQ ID NO:71 is represented by SEQ ID NO:72. CF-679 (SEQ ID NO:83) is another GSE that has substantial sequence identity with a gene encoding human translationally controlled tumor protein 1 (GenBank Accession No. HUMCH13C4A). The complement of SEQ ID NO:83 is represented by SEQ ID NO:84. […] The complement of SEQ ID NO:75 is represented by SEQ ID NO:76. […] The complement of SEQ ID NO:79 is represented by SEQ ID NO:80. […] The complement of SEQ ID NO:67 is represented by SEQ ID NO:68. […] The complement of SEQ ID NO:63 is represented by SEQ ID NO:64. CF-675 (SEQ ID NO:65) is another GSE that has substantial sequence identity with a gene encoding alpha enolase protein. The complement of SEQ ID NO:65 is represented by SEQ ID NO:66. […] The complement of SEQ ID NO:73 is represented by SEQ ID NO:74. […] The complement of SEQ ID NO:81 is represented by SEQ ID NO:82. […] The complement of SEQ ID NO:85 is represented by SEQ ID NO:86. […] The complement of SEQ ID NO:89 is represented by SEQ ID NO:90. […] The complement of SEQ ID NO:91 is represented by SEQ ID NO:92. […] The complement of SEQ ID NO:93 is represented by SEQ ID NO:94. Another member of the cluster is CF-686 (SEQ ID NO:95), also having substantial sequence identity with a gene encoding cell surface heparin binding protein (Liu et al., ibid.). The complement of SEQ ID NO:95 is represented by SEQ ID NO:96.
For the molecule “CF-693: GSE, SEQ ID NO:75, sense; NEF interacting protein gene (sense GATTCTCAGCTGGTAGCTGGTGTTGCATTCAAGAAGACTTTCTCTTACGCTGGGTT; listed as Homo sapiens)”, the “HIV-suppressive activity of the GSE and active orientation” value (“HIV-suppressive activity” below) is “interferes with HIV replication in a sense orientation”. The same measure, in the same setting: then B1, with “interferes with HIV replication as an antisense molecule”; and B2, with “interfere with HIV replication as an antisense molecule”. Same read-out and setting: then B3, with “interferes with HIV replication as an antisense molecule”; and B4, with “interferes with HIV replication as an antisense molecule”; and B5, with “interferes with HIV replication as an antisense molecule”. The same measure, in the same setting: then B6, with “interferes with HIV replication in a sense orientation”. As to B7, the “HIV-suppressive activity” value was “interferes with HIV replication in a sense orientation”.

The subject of a further data set is HIV-1IIIB. Kind of data set: Selection of GSEs from HeLa cell library using productive infection of CEM-ss cells. Type of data set: cell-based. As for the experimental part: Additionally, a normalized RFE library made from HeLa cells was transferred into CEM-ss cells and the neo resistant population was infected with TCID50 of 3000/10^6 cells of HIV-1IIIB. This RFE library was represented by 50×10^6 independent recombinant clones. Four and seven days after infection, a purified anti-CD4 monoclonal antibody, L77 (available from Becton Dickinson), was added at 5 Φg/mL to prevent syncytia formation. Syncytia formation is thought to be prevented by blocking the interaction between gp120 expressed on the surface of an infected cell and CD4 on the surface of an uninfected cell. […] At 10-12 days after infection, CD4^+, p24^− cell population representing uninfected cells were sorted. Genomic DNA from the CD4^+, p24^− cells was purified and used for PCR amplification of inserts with the vector-derived primers. The amplified mixture was digested with EcoRI and BamHI and cloned back into the retroviral vector. The selection was repeated for additional rounds.
The selection of GSEs from HeLa cell library using productive infection of CEM-ss cells isolated […] additional nucleic acid molecules which have substantial sequence identity with other cellular genes.
The selection of GSEs from a HeLa cell library using productive infection of CEM-ss cells isolated 21 additional nucleic acid molecules which have substantial sequence identity with other cellular genes. […] The complement of SEQ ID NO:25 is represented by SEQ ID NO:26. […] The complement of SEQ ID NO:27 is represented by SEQ ID NO:28. […] The complement of SEQ ID NO:29 is represented by SEQ ID NO:30. […] The complement of SEQ ID NO:31 is represented by SEQ ID NO:32. […] The complement of SEQ ID NO:33 is represented by SEQ ID NO:34. […] The complement of SEQ ID NO:35 is represented by SEQ ID NO:36. […] The complement of SEQ ID NO:37 is represented by SEQ ID NO:38. […] The complement of SEQ ID NO:39 is represented by SEQ ID NO:40. […] The complement of SEQ ID NO:41 is represented by SEQ ID NO:42. […] The complement of SEQ ID NO:43 is represented by SEQ ID NO:44. […] The complement of SEQ ID NO:45 is represented by SEQ ID NO:46. […] The complement of SEQ ID NO:47 is represented by SEQ ID NO:48. […] The complement of SEQ ID NO:49 is represented by SEQ ID NO:50. […] The complement of SEQ ID NO:51 is represented by SEQ ID NO:52. […] The complement of SEQ ID NO:53 is represented by SEQ ID NO:54. […] The complement of SEQ ID NO:55 is represented by SEQ ID NO:56. […] The complement of SEQ ID NO:57 is represented by SEQ ID NO:58. […] The complement of SEQ ID NO:59 is represented by SEQ ID NO:60. […] The complement of SEQ ID NO:61 is represented by SEQ ID NO:62. […] The complement of SEQ ID NO:77 is represented by SEQ ID NO:78. […] The complement of SEQ ID NO:87 is represented by SEQ ID NO:88. […] The complement of SEQ ID NO:99 is represented by SEQ ID NO:100. […] The complement of SEQ ID NO:101 is represented by SEQ ID NO:102. […] The complement of SEQ ID NO:103 is represented by SEQ ID NO:104. […] The complement of SEQ ID NO:105 is represented by SEQ ID NO: 106. […] The complement of SEQ ID NO:107 is represented by SEQ ID NO:108. […] The complement of SEQ ID NO:109 is represented by SEQ ID NO:110. […] The complement of SEQ ID NO:111 is represented by SEQ ID NO:112. […] The complement of SEQ ID NO:113 is represented by SEQ ID NO:114. […] The complement of SEQ ID NO:115 is represented by SEQ ID NO:116. […] The complement of SEQ ID NO:117 is represented by SEQ ID NO:118.
As to B8, the “HIV-suppressive activity” value was “exhibits its HIV-suppressive activities in the sense orientation”. Regarding B9, the “HIV-suppressive activity” value is reported as “a peptide from which interferes with HIV replication”.
